As usually defined, the EC50 (read off the curve) is the concentration needed to bring the measured effect to its halfway point.

In one test the target is T1, Claudin-1.
T1 construct: expressed on transiently transfected HEK 293 cells
Nature of the test: FACS, transfected HEK 293 cells. Background: Flow cytometry measures light scatter and fluorescence of single cells or particles in a stream.

Another test addresses T2, Claudin-2.
T2 construct: expressed on transiently transfected HEK 293 cells; the sheet prints only the number after Claudin-1
T2 sequence (P57739 whole entry, species assumed, looked up): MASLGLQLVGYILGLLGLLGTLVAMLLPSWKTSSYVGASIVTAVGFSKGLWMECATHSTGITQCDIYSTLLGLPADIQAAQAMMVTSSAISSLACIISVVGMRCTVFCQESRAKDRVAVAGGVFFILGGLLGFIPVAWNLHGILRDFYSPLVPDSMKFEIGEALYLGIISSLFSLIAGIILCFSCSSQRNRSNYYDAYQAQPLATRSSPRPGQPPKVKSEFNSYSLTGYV
Nature of the test: FACS, transfected HEK 293 cells.

The target in a further test is T3, Claudin-3.
T3 construct: expressed on transiently transfected HEK 293 cells; the sheet prints only the number after Claudin-1
The test is described as follows: FACS, transfected HEK 293 cells.

For a further test, the target named is T4, Claudin-4.
T4 construct: expressed on transiently transfected HEK 293 cells; the sheet prints only the number after Claudin-1
Nature of the test: FACS, transfected HEK 293 cells.

The next test concerns the target T5, Claudin-5.
T5 construct: expressed on transiently transfected HEK 293 cells; the sheet prints only the number after Claudin-1
T5 sequence (O00501 whole entry, species assumed, looked up): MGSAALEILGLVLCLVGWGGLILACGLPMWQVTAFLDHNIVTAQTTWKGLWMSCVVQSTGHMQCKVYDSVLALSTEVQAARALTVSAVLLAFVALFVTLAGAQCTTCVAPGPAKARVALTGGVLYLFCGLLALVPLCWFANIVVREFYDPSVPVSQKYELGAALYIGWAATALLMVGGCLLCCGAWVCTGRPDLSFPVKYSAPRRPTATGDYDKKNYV
The test is described as follows: FACS, transfected HEK 293 cells.

For a further test, the target named is T6, Claudin-8.
T6 construct: expressed on transiently transfected HEK 293 cells; the sheet prints only the number after Claudin-1
The test is described as follows: FACS, transfected HEK 293 cells.

In a further test the target is T7, Claudin-9.
T7 construct: expressed on transiently transfected HEK 293 cells; the sheet prints only the number after Claudin-1
Nature of the test: FACS, transfected HEK 293 cells.

The next test deals with T8, Claudin-10.
T8 construct: expressed on transiently transfected HEK 293 cells; the sheet prints only the number after Claudin-1
T8 sequence (P78369 1-228, species assumed, looked up): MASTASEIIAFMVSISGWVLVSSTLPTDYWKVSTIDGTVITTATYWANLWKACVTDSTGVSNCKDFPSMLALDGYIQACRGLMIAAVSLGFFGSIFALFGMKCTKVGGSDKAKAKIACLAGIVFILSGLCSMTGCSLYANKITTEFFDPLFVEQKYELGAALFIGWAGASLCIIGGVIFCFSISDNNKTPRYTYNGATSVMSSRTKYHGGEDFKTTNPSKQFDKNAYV
The test is described as follows: FACS, transfected HEK 293 cells.

For the next test, the target named is T9, Claudin-11.
T9 construct: expressed on transiently transfected HEK 293 cells; the sheet prints only the number after Claudin-1
T9 sequence (O75508 whole entry, species assumed, looked up): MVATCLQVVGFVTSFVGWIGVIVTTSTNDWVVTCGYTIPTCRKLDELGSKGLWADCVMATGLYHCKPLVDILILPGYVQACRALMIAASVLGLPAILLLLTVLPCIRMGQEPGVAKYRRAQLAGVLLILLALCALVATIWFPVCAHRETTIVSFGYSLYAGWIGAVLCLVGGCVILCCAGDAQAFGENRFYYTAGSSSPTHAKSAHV
Nature of the test: FACS, transfected HEK 293 cells.

The target of another test is T10, Claudin-12.
T10 construct: expressed on transiently transfected HEK 293 cells; the sheet prints only the number after Claudin-1
The test is described as follows: FACS, transfected HEK 293 cells.

The target in another test is T11, Claudin-14.
T11 construct: expressed on transiently transfected HEK 293 cells; the sheet prints only the number after Claudin-1
The test is described as follows: FACS, transfected HEK 293 cells.

The next test deals with T12, Claudin-16.
T12 construct: expressed on transiently transfected HEK 293 cells; the sheet prints only the number after Claudin-1
T12 sequence (Q9Y5I7 1-235, species assumed, looked up): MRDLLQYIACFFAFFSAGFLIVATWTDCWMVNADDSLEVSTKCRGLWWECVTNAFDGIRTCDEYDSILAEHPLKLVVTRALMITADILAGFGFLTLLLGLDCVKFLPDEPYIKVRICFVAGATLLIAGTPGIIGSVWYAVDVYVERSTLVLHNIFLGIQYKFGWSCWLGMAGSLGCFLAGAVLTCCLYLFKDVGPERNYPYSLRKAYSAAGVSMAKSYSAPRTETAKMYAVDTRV
Nature of the test: FACS, transfected HEK 293 cells.

For the next test, the target named is T13, Claudin-17.
T13 construct: expressed on transiently transfected HEK 293 cells; the sheet prints only the number after Claudin-1
T13 sequence (P56750 whole entry, species assumed, looked up): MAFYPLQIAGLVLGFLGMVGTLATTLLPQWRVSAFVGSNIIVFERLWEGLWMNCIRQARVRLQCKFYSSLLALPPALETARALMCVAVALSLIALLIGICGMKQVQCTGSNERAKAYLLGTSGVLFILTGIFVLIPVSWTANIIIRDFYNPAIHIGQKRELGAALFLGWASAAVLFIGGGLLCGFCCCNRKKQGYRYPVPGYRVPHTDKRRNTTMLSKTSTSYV
Nature of the test: FACS, transfected HEK 293 cells.

The next test concerns the target T14, Claudin-19.
T14 construct: expressed on transiently transfected HEK 293 cells; the sheet prints only the number after Claudin-1
T14 sequence (Q8N6F1 whole entry, species assumed, looked up): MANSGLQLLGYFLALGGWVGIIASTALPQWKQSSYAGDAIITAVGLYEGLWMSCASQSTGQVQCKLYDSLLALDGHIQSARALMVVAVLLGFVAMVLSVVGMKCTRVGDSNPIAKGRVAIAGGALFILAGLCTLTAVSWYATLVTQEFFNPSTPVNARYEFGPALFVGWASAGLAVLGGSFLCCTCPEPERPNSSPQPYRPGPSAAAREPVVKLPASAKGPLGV
Nature of the test: FACS, transfected HEK 293 cells.

For the next test, the target named is T15, Claudin-22.
T15 construct: expressed on transiently transfected HEK 293 cells; the sheet prints only the number after Claudin-1
The test is described as follows: FACS, transfected HEK 293 cells.

The target of a further test is T16, Claudin-23.
T16 construct: expressed on transiently transfected HEK 293 cells; the sheet prints only the number after Claudin-1
T16 sequence (Q96B33 1-292, species assumed, looked up): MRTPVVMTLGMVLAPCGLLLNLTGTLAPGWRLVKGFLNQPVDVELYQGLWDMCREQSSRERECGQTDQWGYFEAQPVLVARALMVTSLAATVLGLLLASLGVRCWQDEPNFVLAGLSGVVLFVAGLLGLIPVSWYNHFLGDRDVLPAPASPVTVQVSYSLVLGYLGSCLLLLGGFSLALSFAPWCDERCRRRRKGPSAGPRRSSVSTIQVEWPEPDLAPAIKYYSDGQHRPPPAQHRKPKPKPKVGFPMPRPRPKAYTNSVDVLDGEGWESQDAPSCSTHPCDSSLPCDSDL
Nature of the test: FACS, transfected HEK 293 cells.

A further test concerns the target T17, Claudin-34.
T17 construct: expressed on transiently transfected HEK 293 cells; the sheet prints only the number after Claudin-1
The test is described as follows: FACS, transfected HEK 293 cells.

The target in test [1] is T18, CLDN 7 expressed on HEK 293 cells (UniProt O95471 1-211, limits assumed).
T18 construct: whole, on cells
T18 sequence (looked up): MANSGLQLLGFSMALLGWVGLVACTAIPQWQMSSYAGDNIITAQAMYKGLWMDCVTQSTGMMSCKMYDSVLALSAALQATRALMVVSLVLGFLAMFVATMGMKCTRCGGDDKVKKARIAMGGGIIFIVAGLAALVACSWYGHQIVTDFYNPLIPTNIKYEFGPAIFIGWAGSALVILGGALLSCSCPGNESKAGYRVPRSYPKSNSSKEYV
The test is described as follows: FACS, transfected HEK 293 cells.

The target in test [2] is T19, human Claudin 18.2 (CLDN18.2) expressed on cells (human, UniProt P56856-2 1-261).
T19 construct: whole, on cells; also called CLD18.2; CLD18A2
Nature of the test: FACS, HEK 293 cells expressing CLDN18.2.

Test [3] concerns the target T19, human Claudin 18.2 (CLDN18.2) expressed …. The test is described as follows: FACS, transfected HEK 293 cells, first 18.2 column.
Test [4] has the same target. Nature of the test: FACS, transfected HEK 293 cells, second 18.2 column.
The target is the same in test [5]. Nature of the test: FACS, hybridoma supernatant of the first fusion, AF 647 anti-IgG.

B1: ASK589-B (antibody, human IgG1, kappa, V domains shown)
VH: EVQLVESGGGLVKPGGSLRLSCAVSGFYFNRGYWICWVRQAPGKGLEWIGCIDTGSGVPYYANWAKGRFTISRHTSKTTLTLQMNSLRAEDTASYFCARNSDSIYFNIWGPGTLVTVSS
VL: DIVMTQSPSSLSASVGDRVTITCQASQSIGGYISWYQQKPGKAPKLLIYKASTLASGVPSRFSGSGSGTDFTLTISSLQPEDFATYYCQNYAGVSIYGAVFGGGTKVVIKR
notes: Humanized rabbit antibody (from Clone 46; HC5M1 with LC1M1); also called Molecule B
Take B1: the MFI in the test with Claudin-1 is 22.8; with Claudin-2 it was 21.3; with Claudin-3, 23.8; with Claudin-4, 22; with Claudin-5 it was 20.3; in the test with Claudin-8, 21.4. Also, the MFI is 21.8 with Claudin-9; 23 with Claudin-10; 20.9 in the test with Claudin-11; 20.7 with Claudin-12; 21.7 in the test with Claudin-14; 24.5 with Claudin-16. The MFI with Claudin-17 came out at 21.8; in the test with Claudin-19 it was 21; in the test with Claudin-22 it was 29.1; with Claudin-23 it was 22; in the test with Claudin-34, 22.3; in test [1] it was 22.6. Also, the MFI in test [3] is 3870; in test [4], 4050. In addition, the binding result in [1] is recorded as “no binding”. The 50% effective concentration (EC50 (read off the curve)) in test [2] was about 0.3 µg/mL.

B2: 30B5 (mouse hybridoma subclone antibody) (antibody, V domains shown)
VH: EVKLEESGGGLVQPGGSMKLSCVASGFTFSNYWMNWVRQSPEKGLEWVAEIRLKSKNYATHYAESVKGRFTISRDDSIGSVYLQMNNLRAEDTGIYYCARGHYGTNYGDYWGQGTSVTVSS
VL: DIVMTQSPSSLTVTAGEKVTVSCKSSQSLFNSGNQKHYLTWYQQKPGQPPKLLIYRASTRESGVPDRFTGSGSGTDFTLTIRNVQAEDLAVYYCQNDYSFPLTFGAGTKLELK
notes: also remade as chimeric antibody with human IgG1 and kappa
For B2, the binding result in test [5] is recorded as “binds”.

(Values after patent US20200040101A1 (ASKGENE PHARMA, published 2020).)
